Patent publication US20250242041A1 (Seagen, published 2025)

Legend:
recombinant human αvβ3 = target: T1, recombinant human αvβ3 (human, UniProt P06756 31-992; P05106 27-718); assay: ELISA on coated recombinant integrin
T1 construct: Bought from R&D Systems
Procedure: (§1) 96-well Maxisorb plates (Nunc) were coated overnight at 4° C. with 1 ug/ml of recombinant human αvβ1, αvβ3, αvβ5, αvβ6 and αvβ8 (R&D Systems, MN) diluted in 50 mM carbonate buffer (Sigma, MO). Plates were washed with PBS+0.05% Tween 20 (PBS-T). Wash buffer was removed and plates were blocked for 2 hours at room temperature in TBS blocking buffer (TBS, 0.05% Tween 20, 1% BSA). Plates were washed and then incubated for 2 hours with humanized 2A2 antibody diluted in TBS binding buffer (TBS, 0.05% Tween 20, 1% BSA, 1 mM MnCl₂) at concentrations that ranged from 1 pM-67 nM (10 ug/ml). Plates were washed, incubated for 1 hour with 1:5000 dilution of anti-human Fc-HRP (Jackson ImmunoResearch, PA), washed, and then incubated with TMB substrate for 5 minutes. The reaction was stopped with 1 M HCl. Absorbance at 450 nm was read using a Fusion HT plate reader (Perkin Elmer, Waltham, MA).

recombinant human αvβ5 = target: T2, recombinant human αvβ5 (human, UniProt P06756 31-992; P18084 24-719); assay: ELISA on coated recombinant integrin
T2 construct: Bought from R&D Systems
T2 sequence (P18084 24-719 limits assumed, one chain of several): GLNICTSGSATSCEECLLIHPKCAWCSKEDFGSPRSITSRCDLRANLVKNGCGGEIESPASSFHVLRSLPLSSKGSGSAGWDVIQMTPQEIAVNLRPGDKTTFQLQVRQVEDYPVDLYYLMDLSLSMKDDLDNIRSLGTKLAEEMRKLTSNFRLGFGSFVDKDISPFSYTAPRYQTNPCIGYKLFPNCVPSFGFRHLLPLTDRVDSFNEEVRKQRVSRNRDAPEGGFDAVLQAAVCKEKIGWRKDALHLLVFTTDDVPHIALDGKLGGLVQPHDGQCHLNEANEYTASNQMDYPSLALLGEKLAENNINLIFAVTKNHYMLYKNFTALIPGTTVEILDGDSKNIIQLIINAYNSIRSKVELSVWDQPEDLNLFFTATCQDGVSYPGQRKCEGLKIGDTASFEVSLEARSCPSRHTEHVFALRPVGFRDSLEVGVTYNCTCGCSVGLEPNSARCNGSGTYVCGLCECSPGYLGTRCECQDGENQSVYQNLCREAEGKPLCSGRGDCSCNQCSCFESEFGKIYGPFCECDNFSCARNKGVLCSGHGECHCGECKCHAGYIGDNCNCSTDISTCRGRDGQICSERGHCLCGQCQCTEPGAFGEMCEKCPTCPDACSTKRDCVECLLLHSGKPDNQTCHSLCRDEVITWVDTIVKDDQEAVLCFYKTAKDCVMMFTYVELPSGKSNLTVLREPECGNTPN
Procedure: as §1

recombinant human αvβ8 = target: T3, recombinant human αvβ8 (human, UniProt P06756 31-992; P26012 43-684); assay: ELISA on coated recombinant integrin
T3 construct: Bought from R&D Systems
T3 sequence (P26012 43-684 limits assumed, one chain of several): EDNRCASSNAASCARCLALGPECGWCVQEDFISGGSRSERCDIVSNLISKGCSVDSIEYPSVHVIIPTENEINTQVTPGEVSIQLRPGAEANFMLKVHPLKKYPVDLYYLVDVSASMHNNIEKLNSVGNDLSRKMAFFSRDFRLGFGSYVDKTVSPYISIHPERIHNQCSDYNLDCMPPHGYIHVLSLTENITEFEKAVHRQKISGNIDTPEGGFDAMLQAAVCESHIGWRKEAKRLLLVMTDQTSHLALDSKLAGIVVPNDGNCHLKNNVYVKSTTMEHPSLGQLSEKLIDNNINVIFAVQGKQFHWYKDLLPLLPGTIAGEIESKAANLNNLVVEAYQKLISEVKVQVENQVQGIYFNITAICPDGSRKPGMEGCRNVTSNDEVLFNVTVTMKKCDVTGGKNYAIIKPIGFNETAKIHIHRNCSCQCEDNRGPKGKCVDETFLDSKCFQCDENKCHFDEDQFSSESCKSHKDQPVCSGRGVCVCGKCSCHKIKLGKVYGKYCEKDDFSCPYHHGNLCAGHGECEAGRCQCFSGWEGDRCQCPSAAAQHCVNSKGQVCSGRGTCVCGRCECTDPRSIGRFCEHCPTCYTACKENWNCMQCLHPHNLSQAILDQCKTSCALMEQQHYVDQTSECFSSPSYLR
Procedure: as §1

[1] = target: T4, recombinant human αvβ6 (R&D Systems) (human, UniProt P06756 31-992; P18564 22-707); assay: ELISA on coated recombinant integrin
T4 construct: Bought from R&D Systems, coated on the ELISA plate
Procedure: as §1

recombinant human αvβ1 = target: T5, recombinant human αvβ1 (human, UniProt P06756 31-992; P05556 21-728); assay: ELISA on coated recombinant integrin
T5 construct: Bought from R&D Systems
T5 sequence (P05556 21-728 limits assumed, one chain of several): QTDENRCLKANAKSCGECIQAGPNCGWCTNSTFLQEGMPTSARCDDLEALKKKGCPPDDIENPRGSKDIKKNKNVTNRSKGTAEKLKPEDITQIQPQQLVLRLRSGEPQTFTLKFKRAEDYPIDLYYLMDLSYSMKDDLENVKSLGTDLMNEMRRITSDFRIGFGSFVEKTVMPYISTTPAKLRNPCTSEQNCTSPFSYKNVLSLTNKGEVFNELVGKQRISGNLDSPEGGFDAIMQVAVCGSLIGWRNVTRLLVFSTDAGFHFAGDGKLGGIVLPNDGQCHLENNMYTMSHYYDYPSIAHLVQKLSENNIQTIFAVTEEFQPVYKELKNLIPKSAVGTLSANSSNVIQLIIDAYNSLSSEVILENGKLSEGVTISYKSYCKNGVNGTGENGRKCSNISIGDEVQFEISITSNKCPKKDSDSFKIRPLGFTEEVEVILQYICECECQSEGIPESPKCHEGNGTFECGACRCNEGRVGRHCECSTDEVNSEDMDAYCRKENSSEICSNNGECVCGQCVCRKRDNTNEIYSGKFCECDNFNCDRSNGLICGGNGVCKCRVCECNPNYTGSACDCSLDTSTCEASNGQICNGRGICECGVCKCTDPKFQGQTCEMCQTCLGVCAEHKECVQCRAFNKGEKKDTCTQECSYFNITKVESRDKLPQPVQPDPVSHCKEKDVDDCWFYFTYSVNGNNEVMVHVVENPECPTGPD
Procedure: as §1

[2] = target: T6, human αvβ6 on 293F:huβ6 cells (human, UniProt P06756 31-1048; P18564 22-788); assay: competition binding on 293F cells; 2nM m2A2-AF647 competitor
T6 chain 1: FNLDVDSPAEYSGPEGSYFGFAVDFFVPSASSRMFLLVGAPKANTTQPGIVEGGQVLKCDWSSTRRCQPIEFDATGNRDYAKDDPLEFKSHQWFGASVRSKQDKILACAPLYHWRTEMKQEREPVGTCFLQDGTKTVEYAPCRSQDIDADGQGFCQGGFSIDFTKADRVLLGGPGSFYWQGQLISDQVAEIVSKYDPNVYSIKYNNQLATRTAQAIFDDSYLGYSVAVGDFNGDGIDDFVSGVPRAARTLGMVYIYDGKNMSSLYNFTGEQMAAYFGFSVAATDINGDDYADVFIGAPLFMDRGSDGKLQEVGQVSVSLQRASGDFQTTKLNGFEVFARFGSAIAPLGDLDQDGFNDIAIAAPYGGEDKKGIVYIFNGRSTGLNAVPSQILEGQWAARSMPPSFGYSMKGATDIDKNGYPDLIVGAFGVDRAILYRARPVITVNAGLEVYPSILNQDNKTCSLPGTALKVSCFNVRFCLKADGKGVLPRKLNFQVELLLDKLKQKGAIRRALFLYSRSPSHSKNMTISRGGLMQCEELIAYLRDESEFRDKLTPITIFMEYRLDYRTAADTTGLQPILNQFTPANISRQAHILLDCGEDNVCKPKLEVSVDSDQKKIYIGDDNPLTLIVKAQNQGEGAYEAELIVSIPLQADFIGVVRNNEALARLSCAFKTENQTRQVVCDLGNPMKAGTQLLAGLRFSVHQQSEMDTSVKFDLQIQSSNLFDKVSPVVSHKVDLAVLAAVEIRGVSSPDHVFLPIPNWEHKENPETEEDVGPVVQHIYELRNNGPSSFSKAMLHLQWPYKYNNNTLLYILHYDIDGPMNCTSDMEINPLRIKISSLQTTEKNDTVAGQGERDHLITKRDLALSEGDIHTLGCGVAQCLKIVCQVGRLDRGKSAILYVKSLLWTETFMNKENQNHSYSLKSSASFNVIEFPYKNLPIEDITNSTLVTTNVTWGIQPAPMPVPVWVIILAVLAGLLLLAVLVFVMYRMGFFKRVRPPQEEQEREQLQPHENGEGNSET
T6 chain 2: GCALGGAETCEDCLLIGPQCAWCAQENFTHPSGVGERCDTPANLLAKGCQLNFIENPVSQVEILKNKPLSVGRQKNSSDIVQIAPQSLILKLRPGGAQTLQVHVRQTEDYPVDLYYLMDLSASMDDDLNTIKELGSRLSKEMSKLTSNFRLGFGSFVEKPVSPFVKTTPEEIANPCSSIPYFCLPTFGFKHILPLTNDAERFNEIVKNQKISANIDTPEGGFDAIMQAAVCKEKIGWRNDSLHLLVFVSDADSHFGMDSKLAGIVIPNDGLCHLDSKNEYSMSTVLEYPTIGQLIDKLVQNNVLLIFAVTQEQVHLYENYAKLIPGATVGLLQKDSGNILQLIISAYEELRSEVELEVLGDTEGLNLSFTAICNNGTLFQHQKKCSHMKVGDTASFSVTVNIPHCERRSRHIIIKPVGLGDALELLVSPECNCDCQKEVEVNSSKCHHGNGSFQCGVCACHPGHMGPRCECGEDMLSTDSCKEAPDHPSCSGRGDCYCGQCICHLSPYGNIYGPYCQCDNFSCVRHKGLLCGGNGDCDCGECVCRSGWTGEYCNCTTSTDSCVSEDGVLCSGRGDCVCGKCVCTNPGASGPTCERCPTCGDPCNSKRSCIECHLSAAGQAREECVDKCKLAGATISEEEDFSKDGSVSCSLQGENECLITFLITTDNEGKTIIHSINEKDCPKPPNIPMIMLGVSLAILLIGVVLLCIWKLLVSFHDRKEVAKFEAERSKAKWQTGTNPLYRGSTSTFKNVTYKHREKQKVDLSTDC

T1 sequence (P05106 27-718 limits assumed, one chain of several): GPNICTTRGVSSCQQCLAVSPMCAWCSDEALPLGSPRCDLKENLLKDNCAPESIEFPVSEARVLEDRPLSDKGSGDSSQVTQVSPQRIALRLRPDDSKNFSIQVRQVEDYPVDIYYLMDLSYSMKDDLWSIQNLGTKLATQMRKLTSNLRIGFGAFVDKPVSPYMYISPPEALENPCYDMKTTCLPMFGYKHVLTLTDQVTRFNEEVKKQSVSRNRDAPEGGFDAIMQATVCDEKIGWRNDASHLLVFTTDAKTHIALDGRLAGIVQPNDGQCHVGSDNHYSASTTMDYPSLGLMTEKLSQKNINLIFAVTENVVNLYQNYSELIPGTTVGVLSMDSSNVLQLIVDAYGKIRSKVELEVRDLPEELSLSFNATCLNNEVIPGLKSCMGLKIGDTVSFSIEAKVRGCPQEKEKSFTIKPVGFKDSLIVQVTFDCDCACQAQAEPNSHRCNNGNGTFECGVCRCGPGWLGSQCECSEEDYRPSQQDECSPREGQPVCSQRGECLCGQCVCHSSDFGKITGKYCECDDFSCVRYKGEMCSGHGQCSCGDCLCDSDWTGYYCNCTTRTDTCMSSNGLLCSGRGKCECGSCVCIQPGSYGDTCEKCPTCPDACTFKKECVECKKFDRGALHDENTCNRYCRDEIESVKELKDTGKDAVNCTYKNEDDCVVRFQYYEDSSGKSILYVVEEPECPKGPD

B1: h2A2 HCLG humanized antibody (antibody, human IgG1, kappa, V domains shown)
VH: QFQLVQSGAEVKKPGASVKVSCKASGYSFTDYNVNWVRQAPGQGLEWIGVINPKYGTTRYNQKFKGRATLTVDKSTSTAYMELSSLRSEDTAVYYCTRGLNAWDYWGQGTLVTVSS
VL: DIQMTQSPSSLSASVGDRVTITCGASENIYGALNWYQQKPGKAPKLLIYGATNLEDGVPSRFSGSGSGRDYTFTISSLQPEDIATYYCQNVLTTPYTFGQGTKLEIKR
notes: Labelled with AlexaFluor-647 in the saturation assay; also called humanized 2A2 HCLG
binding result (recombinant human αvβ3): no binding (tested: 1 pM-67 nM (10 ug/ml))
binding result (recombinant human αvβ5): no binding (tested: 1 pM-67 nM (10 ug/ml))
binding result (recombinant human αvβ8): no binding (tested: 1 pM-67 nM (10 ug/ml))
binding result [1]: binds
binding result (recombinant human αvβ1): no binding (tested: 1 pM-67 nM (10 ug/ml))
EC50 [2]: 1 nM
